The source of these data is patent US20150368333A1 (GlaxoSmithKline, published 2015).

Test [1] deals with T1, TNF alpha (species not given) (UniProt P01375 77-233, limits assumed). The test is described as follows: cell-based or functional assay.
In test [2] the target is T1, TNF alpha (species not stated in the …). Put plainly: cell-based or functional assay. This is another data set of the same source.
In test [3] the target is T2, recombinant human TNFα (human, UniProt P01375 77-233).
T2 construct: also called human TNF alpha; tumour necrosis factor alpha
The test is described as follows: Biacore T100 SPR, antibody captured on Protein A, TNF alpha as analyte, 37 C.

In test [4] the target is T3, recombinant cynomolgus TNF alpha (cynomolgus, UniProt P79337 77-233).
T3 construct: also called Cyno TNFα
The test is described as above.

Test [5] addresses T2, recombinant human TNFα. The test is described as follows: Biacore T100 SPR, antibody captured on anti-human IgG, TNF alpha as analyte, 37 C. (SPR reads the build-up and loss of mass on a sensor chip optically.)
The target in test [6] is T3, recombinant cynomolgus TNF alpha. Described as above.
The target in test [7] is T1, TNF alpha (species not stated in the …). Put plainly: ProteOn SPR reverse format, biotinylated TNF alpha captured on neutravidin (NLC) chip, antibody as analyte, 1:1 model, apparent kinetics.
Test [8] has as its target T4, recombinant human FcRn (human, UniProt P55899 24-297; P61769 21-119, limits assumed).
T4 construct: also called Human FcRn receptor
Put plainly: SPR, antibody amine-coupled on GLM chip, FcRn as analyte, equilibrium model, pH 6.0.

Test [9] addresses T5, recombinant cynomolgus FcRn (cynomolgus, UniProt Q8SPV9 24-297; Q8SPW0 21-119, limits assumed).
T5 construct: Construct not described; beta-2-microglobulin not mentioned; also called cyno FcRn
The test is described as above.

In test [10] the target is T6, mouse FcRn (mouse, UniProt Q61559 22-297; P01887 21-119, limits assumed).
T6 construct: Construct not described; also called Mouse FcRn receptor
T6 sequence (looked up) 1: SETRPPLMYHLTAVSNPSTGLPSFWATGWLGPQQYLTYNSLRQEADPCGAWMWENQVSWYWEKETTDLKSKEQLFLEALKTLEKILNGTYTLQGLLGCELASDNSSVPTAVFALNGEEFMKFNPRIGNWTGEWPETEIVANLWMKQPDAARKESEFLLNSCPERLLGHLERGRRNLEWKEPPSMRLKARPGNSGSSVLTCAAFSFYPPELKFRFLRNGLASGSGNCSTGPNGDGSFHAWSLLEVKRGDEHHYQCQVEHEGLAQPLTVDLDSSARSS
T6 sequence (looked up) 2: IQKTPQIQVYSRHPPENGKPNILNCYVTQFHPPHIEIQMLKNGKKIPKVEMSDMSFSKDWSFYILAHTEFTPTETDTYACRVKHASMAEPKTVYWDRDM
The description is as above.

For test [11], the target named is T7, rat FcRn (rat, UniProt P13599 23-298; P07151 21-119, limits assumed).
T7 construct: Construct not described; also called Rat FcRn receptor
T7 sequence (looked up) 1: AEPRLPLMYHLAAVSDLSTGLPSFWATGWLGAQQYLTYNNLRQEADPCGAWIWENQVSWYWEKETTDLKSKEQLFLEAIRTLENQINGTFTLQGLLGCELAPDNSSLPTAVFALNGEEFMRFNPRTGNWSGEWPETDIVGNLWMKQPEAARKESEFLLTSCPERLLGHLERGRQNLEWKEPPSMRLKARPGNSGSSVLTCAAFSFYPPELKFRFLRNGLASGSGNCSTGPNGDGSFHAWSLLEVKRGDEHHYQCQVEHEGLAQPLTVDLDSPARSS
T7 sequence (looked up) 2: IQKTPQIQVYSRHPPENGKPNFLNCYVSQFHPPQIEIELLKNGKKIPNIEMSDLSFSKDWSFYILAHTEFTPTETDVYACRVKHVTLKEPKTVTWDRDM
The description is as above.

For test [12], the target named is T4, recombinant human FcRn. The test is described as follows: SPR, antibody amine-coupled on GLM chip, FcRn as analyte, equilibrium model, pH 7.4.
Test [13] concerns the target T5, recombinant cynomolgus FcRn. The test is described as above.
Test [14] deals with T6, mouse FcRn. The description is as above.
The target of test [15] is T7, rat FcRn. Described as above.
For test [16], the target named is T4, recombinant human FcRn. Put plainly: SPR, antibody amine-coupled on GLM chip, FcRn as analyte, equilibrium model, pH 6.0; pH 6.0.
Test [17] concerns the target T5, recombinant cynomolgus FcRn. The test is described as above.
For test [18], the target named is T6, mouse FcRn. The test is described as above.
Test [19] addresses T7, rat FcRn. Described as above.

T3 sequence (P79337 77-233 limits assumed): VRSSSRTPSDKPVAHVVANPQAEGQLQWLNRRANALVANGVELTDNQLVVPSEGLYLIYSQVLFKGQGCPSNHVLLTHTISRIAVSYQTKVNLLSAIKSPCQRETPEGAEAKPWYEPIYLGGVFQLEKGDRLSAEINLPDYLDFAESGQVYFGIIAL
T2 sequence (P01375 77-233 limits assumed): as the sequence (P79337 77-233 limits assumed) above, with V37L, T44R, N72T, L138R counted along it
T1 sequence (P01375 77-233 limits assumed): as the sequence (P79337 77-233 limits assumed) above, with V37L, T44R, N72T, L138R counted along it
T4 sequence (P55899 24-297 limits assumed, chain 1 of 2): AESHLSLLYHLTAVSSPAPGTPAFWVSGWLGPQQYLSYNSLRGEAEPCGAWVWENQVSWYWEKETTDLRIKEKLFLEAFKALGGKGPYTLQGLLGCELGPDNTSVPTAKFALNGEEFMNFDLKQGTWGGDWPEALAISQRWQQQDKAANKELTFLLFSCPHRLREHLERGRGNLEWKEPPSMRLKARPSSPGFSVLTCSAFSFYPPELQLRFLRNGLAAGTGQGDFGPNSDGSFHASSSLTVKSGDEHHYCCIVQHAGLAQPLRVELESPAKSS
T4 sequence (P61769 21-119 limits assumed, chain 2 of 2): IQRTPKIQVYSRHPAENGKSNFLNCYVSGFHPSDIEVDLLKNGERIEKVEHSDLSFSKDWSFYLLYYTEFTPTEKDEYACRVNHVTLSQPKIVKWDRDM

B1: BPC1500 (antibody, V domains shown)
VH: EVQLVESGGGLVQPGRSLRLSCAASGFTFDDHALHWVRQAPGKGLEWVSAITWNSGHIDYADSVEGRFTISRDNAKNSLYLQMNSLRAEDTAVYYCAKVRYLSTASSLDYWGQGTLVTVSS
VL: not shown
notes: also called CDR variant cb2-44, wild-type Fc; improved anti-TNFα antibody
Broadly, the koff is the first-order rate constant of dissociation. By kon is commonly meant the second-order rate constant of association. B1: the “IC50, L929 neutralisation assay (cell viability)” value in [1] stood at 0.13 µg/mL. Besides, the “IC50, TNFα-induced IL-6 release assay (whole blood)” value in test [2] came to 0.11 nM. For the same molecule, the Kd came out at 0.0156 nM with recombinant human TNFα [3]; 0.015 nM in test [4]; 0.0157 nM with recombinant human TNFα [5]; 0.0467 nM in [6]; 0.015 nM in test [7]. Moreover, the koff was 4.19e-05 s⁻¹ in the test with recombinant human TNFα [3]; 3.51e-05 s⁻¹ in [4]; 7.07e-05 s⁻¹ with recombinant human TNFα [5]; 0.000209 s⁻¹ in [6]; 3e-05 s⁻¹ in test [7]. Besides, the kon with recombinant human TNFα [3] is 2.68e+06 M⁻¹ s⁻¹; in test [4], 2.34e+06 M⁻¹ s⁻¹; with recombinant human TNFα [5], 4.51e+06 M⁻¹ s⁻¹; in [6] it was 4.48e+06 M⁻¹ s⁻¹; in [7], 2.06e+06 M⁻¹ s⁻¹.

B2: BPC2604 (antibody, human IgG1, kappa)
heavy: QVTLRESGPALVKPTQTLTLTCTFSGFSLSTSGMGVSWIRQPPGKGLEWLAHIYWDDDKRYNPSLKSRLTISKDTSRNQVVLTMTNMDPVDTATYYCARRETVFYWYFDVWGRGTLVTVSSASTKGPSVFPLAPSSKSTSGGTAALGCLVKDYFPEPVTVSWNSGALTSGVHTFPAVLQSSGLYSLSSVVTVPSSSLGTQTYICNVNHKPSNTKVDKKVEPKSCDKTHTCPPCPAPELLGGPSVFLFPPKPKDTLYITREPEVTCVVVDVSHEDPEVKFNWYVDGVEVHNAKTKPREEQYNSTYRVVSVLTVLHQDWLNGKEYKCKVSNKALPAPIEKTISKAKGQPREPQVYTLPPSRDELTKNQVSLTCLVKGFYPSDIAVEWESNGQPENNYKTTPPVLDSDGSFFLYSKLTVDKSRWQQGNVFSCSVMHEALHNHYTQKSLSLSPGK
light: DIVLTQSPSSLSASVGDRVTITCKASQSVDYDGDSYMNWYQQKPGKAPKLLIYAASNLESGIPSRFSGSGSGTDFTFTISSLQPEDIATYYCQQSNEDPPTFGQGTKVEIKRTVAAPSVFIFPPSDEQLKSGTASVVCLLNNFYPREAKVQWKVDNALQSGNSQESVTEQDSKDSTYSLSSTLTLSKADYEKHKVYACEVTHQGLSSPVTKSFNRGEC
notes: also called pascolizumab-YTE; Pasco-YTE
In the case of B2, the Kd in the test with recombinant human FcRn [8] is 98 nM; in test [9] it was 92.1 nM; with mouse FcRn [10], 53.4 nM; with rat FcRn [11] it was 66 nM; with recombinant human FcRn [12] it was 11600 nM; in test [13], 11100 nM. The Kd came out at 2160 nM in the test with mouse FcRn [14] and 4330 nM with rat FcRn [15].

B3: Pascolizumab (antibody, human IgG1, kappa)
heavy: not shown
light: B2 light
notes: IgG1, unmodified Fc; also called anti-IL-4 antibody
As for B3, the Kd with recombinant human FcRn [16] was 541 nM; in test [17], 505 nM; with mouse FcRn [18] it was 205 nM; with rat FcRn [19], 228 nM.
